Numbering of substitutions follows the chain as printed.
T1: myostatin (Homo sapiens, UniProt O14793)
T1 construct: To produce mature myostatin, the pooled promyostatin was enzymatically cleaved between the propeptide and mature myostatin C terminal; made in house; host or cells: E. coli K-12 strain 2596 (ATCC # 202174)
T1 sequence (O14793 267-375): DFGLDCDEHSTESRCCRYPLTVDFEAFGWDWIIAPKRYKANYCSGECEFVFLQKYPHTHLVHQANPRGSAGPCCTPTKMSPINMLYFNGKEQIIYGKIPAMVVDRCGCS

B1: 2xmTN8-19-7 (protein)
chain: GGGGGAQLADHGQCIRWPWMCPPEGWELEGSGSATGGSGSTASSGSGSATGLADHGQCIRWPWMCPPEGWELE
modifications: Peptibody
B2: 2xmTN8-19-21 (protein)
chain: GGGGGAQSEYQGLCTRWPWMCPPQGWKLEGSGSATGGSGSTASSGSGSATGSEYQGLCTRWPWMCPPQGWKLE
modifications: Peptibody
B3: 2xmTN8-19-22 (protein)
chain: GGGGGAQTFSQGHCTRWPWMCPPQGWGLEGSGSATGGSGSTASSGSGSATGTFSQGHCTRWPWMCPPQGWGLE
modifications: Peptibody
B4: 2x mTN8-19-7: affinity matured 2× peptibody (two peptides in tandem), TN8-19 family, human Fc (protein)
chain: B1 chain
modifications: Peptibody
B5: 2x mTN8-19-33: affinity matured 2× peptibody of the TN8-19 family, human Fc (protein)
chain: B3 chain with T8P, F9E, T52P, F53E
modifications: Peptibody
B6: 2×mTN8-19-22: affinity matured 2× peptibody of the TN8-19 family, human Fc (protein)
chain: B3 chain
B7: ActRIIB/Fc: soluble receptor fusion protein actRIIB/Fc (R&D Systems), recombinant human activin receptor IIB/Fc chimera (protein)
chain: SGRGEAETRECIYYNANWELERTNQSGLERCEGEQDKRLHCYASWRNSSGTIELVKKGCWLDDFNCYDRQECVATEENPQVYFCCCEGNFCNERFTHLPEAGGPEVTYEPPPTAPT
modifications: left off: a dimerising Fc or GST

molecular target: T1, myostatin; assay: C2C12 pMARE-luc cell based myostatin activity assay; settings: not given
Source text: A myostatin-responsive reporter cell line was generated by transfection of C2C12 myoblast cells (ATCC No: CRL-1772) with a pMARE-luc construct. The pMARE-luc construct was made by cloning twelve repeats of the CAGA sequence, representing the myostatin/activin response elements (Dennler et al. EMBO 17: 3091-3100 (1998)) into a pLuc-MCS reporter vector (Stratagene cat #219087) upstream of the TATA box. The myoblast C2C12 cells naturally express myostatin/activin receptors on its cell surface. When myostatin binds the cell receptors, the Smad pathway is activated, and phosphorylated Smad binds to the response element (Macias-Silva et al. Cell 87:1215 (1996)), resulting in the expression of the lucerase gene. Luciferase activity is then measured using a commercial luciferase reporter assay kit (cat #E4550, Promega, Madison, Wis.) according to manufacturer's protocol. A stable line of C2C12 cells that had been transfected with pMARE-luc (C2C12/pMARE clone #44) was used to measure myostatin activity according to the following procedure.
Equal numbers of the reporter cells (C2C12/pMARE clone #44) were plated into 96 well cultures. A first round screening using two dilutions of peptibodies was performed with the myostatin concentration fixed at 4 nM. Recombinant mature myostatin was pre-incubated for 2 hours at room temperature with peptibodies at 40 nM and 400 nM respectively. The reporter cell culture was treated with the myostatin with or without peptibodies for six hours. Myostatin activity was measured by determining the luciferase activity in the treated cultures. This assay was used to initially identify peptibody hits that inhibited the myostatin signaling activity in the reporter assay. Subsequently, a nine point titration curve was generated with the myostatin concentration fixed at 4 nM. The myostatin was preincubated with each of the following nine concentrations of peptibodies: […], 0.4 nM, 4 nM, 20 nM, 40 nM, 200 nM, 400 nM, 2 uM and 4 uM for two hours before adding the mixture to the reporter cell culture. The IC50 values were for a number of exemplary peptibodies are provided in Tables III and for affinity matured peptibodies, in Table VIII.

| Molecule | inhibition of myostatin activity in cell-based assay |
| --- | --- |
| L2: peptibody: peptide MEMLDSLFELLKDMVPISKA fused to human IgG1 Fc | inhibit myostatin activity |

same assay, conditions: affinity matured peptibodies; a range of values is given

| Molecule | IC50 |
| --- | --- |
| mL15-7 (QVDSLQQVLLWLEHKLALGPQV) | 32.8 nM |
| mL15-9 (QIEMLESLLDLLRDMVPMSNAF) | 354 nM |
| mL20-2 (TQRDMSMLDGLLEVLDQLRQQR) | 123 nM |
| mL20-3 (TSRDMSLLWELLEELDRLGHQR) | 158 nM |
| mL20-4 (MQHDMSMLYGLVELLESLGHQI) | 160 nM |
| mTN8-19-2 (YPEQGLCTRWPWMCPPQTLA) | 7.51 to 34.4 nM |
| mTN8-19-4 (MITQGQCTRWPWMCPPQPSG) | 16.7 nM |
| mTN8-19-5 (AGAQEHCTRWPWMCAPNDWI) | 3.5 to 7.74 nM |
| mTN8-19-6 (GVNQGQCTRWRWMCPPNGWE) | 17.3 nM |
| mTN8-19-9 (TQTHAQCTRWPWMCPPQWEG) | 18.8 to 23 nM |
| mTN8-19-10 (VVTQGHCTLWPWMCPPQRWR) | 5.25 to 7.4 nM |
| mTN8-19-11 (IYPHDQCTRWPWMCPPQPYP) | 28.7 nM |
| mTN8-19-12 (SYWQGQCTRWPWMCPPQWRG) | 980 nM |
| mTN8-19-13 (MWQQGHCTRWPWMCPPQGWG) | 20 nM |
| mTN8-19-14 (EFTQWHCTRWPWMCPPQRSQ) | 4.07 to 6.56 nM |
| mTN8-19-16 (YQTQGLCTRWPWMCPPQSQR) | 4.65 nM |
| mTN8-19-23 (PGAHDHCTRWPWMCPPQSRY) | 6.58 nM |
| mTN8-19-24 (VAEEWHCRRWPWMCPPQDWR) | 1.67 to 2.93 nM |
| mTN8-19-27 (ADTQGHCTRWPWMCPPQHWF) | 4.84 to 4.92 nM |
| mTN8-19-28 (SGPQGHCTRWPWMCAPQGWF) | 4.39 nM |
| mTN8-19-29 (TLVQGHCTRWPWMCPPQRWV) | 6.36 nM |
| mTN8-19-34 (IPAHGHCTRWPWMCPPQRWR) | 5.03 to 5.07 nM |
| B1 | 0.857 to 2.65 nM |
| B2 | 0.828 to 1.43 nM |
| B3 | 0.994 to 1.22 nM |

same assay, conditions: pMARE luc cell-based assay; Table III

| Molecule | IC50 |
| --- | --- |
| Linear-20: peptibody: peptide YREMSMLEGLLDVLERLQHY fused to human IgG1 Fc | ~11 nM |
| TN12-34: peptibody: peptide AHWCEQGPWRYGNICMAY fused to human IgG1 Fc | ~30 nM |

test system: C57B1/6 mice; assay: Gripping strength in normal C57B1/6 mice; format: in vivo, mouse; settings: 30 days s.c. 5 mg/kg per week, measured day 18 of recovery
Procedure: The animals were allowed to recover without any further injections. Gripping strength was measured on day 18 of the recovery period. Griping strength was measured using a Columbia Instruments meter, model 1027 dsm (Columbus, Ohio).

| Molecule | increase in gripping strength compared with control-treated mice |
| --- | --- |
| B4 | 15% |
| B5 | 14% |

test system: not listed separately; assay: In vivo pharmacokinetics in CD1 nu/nu mice; design: species or system mouse; settings: peptibodies without LE sequences, 10 mg/kg and 5 mg/kg
Procedure: In vivo pharmacokinetics experiments were performed using representative peptibodies without the LE sequences. 10 mg/kg and 5 mg/kg dosages were administered to CD1 nu/nu mice and the following parameters determined. Cmax (ug/mL), area under the curve (AUC) (ug-hr/mL), and half-life (hr).

| Molecule | half-life |
| --- | --- |
| B4 | about 106 hours |
| B6 | about 85.2 hours |

molecular target: T1, myostatin; assay: BIAcore affinity analysis on immobilized myostatin; format: binding; settings: Biacore assay; Table III
Procedure: An affinity analysis of each candidate myostatin peptibody was performed on a BIAcore®3000 (Biacore, Inc., Piscataway, N.J.), apparatus using sensor chip CM5, and 0.005 percent P20 surfactant (Biacore, Inc.) as running buffer.
Direct binding assays were used to screen and rank the peptibodies in order of their ability to bind to immobilized myostatin. Binding assays were carried by injection of two concentrations (40 and 400 nM) of each candidate myostatin-binding peptibody to the immobilized myostatin surface at a flow rate of 50 μl/min for 3 minutes. After a dissociation time of 3 minutes, the surface was regenerated. Binding curves were compared qualitatively for binding signal intensity, as well as for dissociation rates. Peptibody binding kinetic parameters including ka (association rate constant), kd (dissociation rate constant) and KD (dissociation equilibrium constant) were determined using the BIA evaluation 3.1 computer program (Biacore, Inc.). The lower the dissociation equilibrium constants (expressed in nM), the greater the affinity of the peptibody for myostatin.

| Molecule | Kd |
| --- | --- |
| B7 | ~7 nM |

test system: CD1 nu/nu mice; assay: In vivo anabolic activity in CD1 nu/nu mouse model; settings: CD1 nu/nu male mice; 1 and 3 mg/kg twice weekly, 35 days; 2× vs 1× peptibody or control
Source text: The CD1 nu/nu mouse model (Charles River Laboratories, Massachusettes) was used to determine the in vivo efficacy of the peptibodies of the present invention which included the human Fc region (huFc). This model responded to the inhibitors of the present invention with a rapid anabolic response which was associated with increased dry muscle mass and an increase in myofibrillar proteins but was not associated with accumulation in body water content.
A group of 10 8 week old CD1 nu/nu mice were treated twice weekly or once weekly with dosages of 1 mg/kg, 3 mg/kg and 10 mg/kg (subcutaneous injection). The control group of 10 8 week old CD1 nu/nu mice received a twice weekly (subcutaneous) injection of huFc (vehicle) at 10 mg/kg. The animals were weighed every other day and lean body mass determined by NMR on day 0 and day 13. The animals are then sacrificed at day 14 and the size of the gastrocnemius muscle determined.
In another example, the 1×mTN8-19-32 peptibody was administered to CD1 nu/nu mice in a biweekly injection of 1 mg/kg, 3 mg/kg, 10 mg/kg, and 30 mg/kg compared with the huFc control (vehicle).
CD1 nu/nu male mice (10 animals per group) were treated with twice weekly injections of 1 mg/kg and 3 mg/kg of 1×mTN8-19-7 and 2×mTN8-19-7 for 35 days, while the control group (10 animals) received twice weekly injections of huFc (3 mg/kg).

| Molecule | body weight gain (FIG. 5) | lean carcass weight at necropsy (FIG. 5) |
| --- | --- | --- |
| B4 | greater body weight gain | greater |
